{"source": "paper PMC8354476", "about": "“Acyl-CoA oxidase ACOX-1 interacts with a peroxin PEX-5 to play roles in larval development of Haemonchus contortus” (PLoS Pathogens, 2021)", "substrate": "CCCCCCCCCCCCCCCC(=O)SCCNC(=O)CCNC(=O)[C@H](O)C(C)(C)COP(=O)(O)OP(=O)(O)OC[C@H]1O[C@@H](n2cnc3c(N)ncnc32)[C@H](O)[C@@H]1OP(=O)(O)O", "experiment": "purified protein", "type": "biochemical, Haemonchus contortus", "conditions": "10 μM FAD, 50 mM potassium phosphate", "key": {"[1]": {"conditions": "pH 7.5, 42°C (optimum conditions)"}}}
{"protein": "rHc-ACOX-1.1 (Haemonchus contortus) (protein, full-length transcript 2019 nt; N-terminal FLAG tag, pcDNA3.1, expressed in HEK293T cells, purified on anti-FLAG magnetic beads; locus chromosome IV: 9780094-9786809; Thr151, Gly190, Glu433 predicted sites; C-terminal PTS1 (SKL)) MPLNKLLRDGDNEDLAEERRKATFDTDEMAAIIWEGKERVRRRREITKKVNEYTELHDPYCQAFMTRHEEVENAARKITKMFSLIDKLGVNPTNAADMAHLTSEVIGLYGHPLALHAVMFIPSLQAQCADDQMHWLKKAMSRQIIGTYAQTELGHGTNLRKLETTATHDANTQEFVLHSPTRTAMKWWPGNLGKSANHAVVVACLIIDGKNYGPHNFIVPLRDPETHMPLKGITVGDIGPKMATGPVDNGFLSFDHYRIPRTNMLMKHAKVTPEGKYIPPAHAKVGYSAMVHVRSHMISDQAKFLAQALTTAIRYSAIRRQGEIQPGDGEVKILEYQTQQYRLLPQLARAYAFSFTGRAVRDLYLRVQKDVAKGKVDEMAELHYITSGLKAVVTHLTGEGISQARMSCGGHGYSKASNMPDLYGIAVADCTYEGENMVMLQQLARYLMRAAGEAEKGRALGRLVNYLVEPSDIHSSIDRQLDYDYKAHLKAFDKAAKLQVMKAYERMRALKAQGLSEEDAWNANAVELNRAARVHTRQYIAHQFYEQVSSVTDGRCREVPRDLLHLHLNYEILDMAYYLLEDGFLSGQQMDYMKEDMYRLLAKLRPNAVSLVDSWDISDHELRSVLGRRDGHVYENLYKWAQESELNRTQVLPTFEKYLKPMMMEAHAQSKL", "values": [{"measurement": "Km", "setting": "pH 7.5, 37°C (optimum conditions)", "value": 78.79, "unit": "µM"}]}
{"protein": "rHc-ACOX-1.2 (Haemonchus contortus) (protein, N-terminal FLAG tag, pcDNA3.1, expressed in HEK293T cells, purified on anti-FLAG magnetic beads; locus chromosome IV: 9789018-9796292; Glu206 active site; C-terminal PTS1 (SKL)) MPFRGITVGDIGPKMAYNGVDNGFLAFHHYRIPRNNMLMKHVKVTPDGKYVPPAHAKVGYSAMVHVRAHMISTQAAFLAQALTTAIRYSAIRRQGEIQPGQGEVKILEYQTQQHRLFPQLARAYAFIFTGQAVRVIFQRVQKDVARGKVDEMAKLHYISSGLKAVVTYLTGQGIEQARMSCGGHGYSKASNMSELYGVAIGGATYEGENMVMLQQLARYLMKSAEAAKSGRAVGKLVDYLVRSSEQRSAIDRQPDHDYSAHLKAFDKAAKLQVMKAYERMQSLRAQGLLEEEAWNANAVELNRAARVHTRQYIARTFDEHVKAVVHGPCREVLLDLLHLHLNYELLDMAYYLLEDGYLSGQQLDYMKEDMYRLLARLRPNIVSLVDSWDFSDHELRSVLGRRDGHVYENLYKWAQESELNRTQVLPTFEKYLKPMMKQAREQSKL", "values": [{"measurement": "Km", "setting": "[1]", "value": 6.83, "unit": "µM"}]}
{"protein": "rHc-ACOX-1.3 (Haemonchus contortus) (protein, N-terminal FLAG tag, pcDNA3.1, expressed in HEK293T cells, purified on anti-FLAG magnetic beads; Glu206 active site; C-terminal PTS1 (SKL)) MPFRGITVGDIGPKMAYNGVDNGFLAFDHYRIPRNNMLMKHVKVTPEGKYVPPAHAKVGYSAMVHVRAHMISTQAAFLAQALTTAIRYSAIRRQGEIQPGRGEVKILEYQTQQHRLFPQLARAYAFIFTGQAVRVIFQRVQKDVARGKVDEMAELHYISSGLKAVVTYLTGQGIEQARMSCGGHGYSKASNMSELYGVAIGGATYEGENMVMLQQLARYLMKSAEAAKNGRAVGKLVDYLVRSSEQRSAIDRKPDHDYTAHLKAFDKAAKLQVMKAYERMQSLRARGLTEEEAWNANAVELNRAARVHTRQYIARTFDEHVKAVVHGPCREVLLDLLYLHLNYELLDMAYYLLEDGYLSGQQMDYMKEDMYRLLARLRPNIVSLVDSWDFSDHELRSVLGRRDGHVYENLYKWAQESELNRTQVLPTFEKYLKPMMKQAREQSKL", "values": [{"measurement": "Km", "setting": "[1]", "value": 12.64, "unit": "µM"}]}
